Legend:
Assay in all cases: fluorescence dot blot
[1] = biological target: thrombin (UniProt P00734;P00734 328-363;364-622)
[2] = biological target: myeloperoxidase (MPO) (UniProt P05164;P05164 165-273;279-745)
[3] = biological target: T1, PBP2a (penicillin binding protein 2a), recombinant soluble (Staphylococcus aureus (MRSA)?, UniProt Q7DHH4 25-668)
T1 sequence: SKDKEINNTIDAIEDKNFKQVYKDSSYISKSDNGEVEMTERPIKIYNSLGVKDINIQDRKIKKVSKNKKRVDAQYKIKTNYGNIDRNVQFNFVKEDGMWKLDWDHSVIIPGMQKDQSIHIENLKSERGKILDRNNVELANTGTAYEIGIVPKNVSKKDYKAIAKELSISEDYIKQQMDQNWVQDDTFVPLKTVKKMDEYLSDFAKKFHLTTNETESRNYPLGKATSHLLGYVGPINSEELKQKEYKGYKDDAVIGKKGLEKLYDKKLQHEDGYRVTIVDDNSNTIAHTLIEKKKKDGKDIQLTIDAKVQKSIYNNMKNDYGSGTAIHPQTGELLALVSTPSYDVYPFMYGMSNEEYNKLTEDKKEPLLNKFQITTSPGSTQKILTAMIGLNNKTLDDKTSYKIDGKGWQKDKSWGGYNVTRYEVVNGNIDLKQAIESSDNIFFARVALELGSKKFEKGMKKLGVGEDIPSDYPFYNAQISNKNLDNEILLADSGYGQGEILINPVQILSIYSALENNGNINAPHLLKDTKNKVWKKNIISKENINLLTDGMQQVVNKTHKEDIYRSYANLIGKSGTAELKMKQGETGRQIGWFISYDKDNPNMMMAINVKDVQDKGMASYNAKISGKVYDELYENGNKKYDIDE

Sequence of myeloperoxidase (MPO) (P05164 165-273, chain 1 of 2): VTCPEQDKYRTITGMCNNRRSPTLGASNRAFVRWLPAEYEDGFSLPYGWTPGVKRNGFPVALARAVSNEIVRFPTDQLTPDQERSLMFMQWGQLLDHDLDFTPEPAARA
Sequence of myeloperoxidase (MPO) (P05164 279-745, chain 2 of 2): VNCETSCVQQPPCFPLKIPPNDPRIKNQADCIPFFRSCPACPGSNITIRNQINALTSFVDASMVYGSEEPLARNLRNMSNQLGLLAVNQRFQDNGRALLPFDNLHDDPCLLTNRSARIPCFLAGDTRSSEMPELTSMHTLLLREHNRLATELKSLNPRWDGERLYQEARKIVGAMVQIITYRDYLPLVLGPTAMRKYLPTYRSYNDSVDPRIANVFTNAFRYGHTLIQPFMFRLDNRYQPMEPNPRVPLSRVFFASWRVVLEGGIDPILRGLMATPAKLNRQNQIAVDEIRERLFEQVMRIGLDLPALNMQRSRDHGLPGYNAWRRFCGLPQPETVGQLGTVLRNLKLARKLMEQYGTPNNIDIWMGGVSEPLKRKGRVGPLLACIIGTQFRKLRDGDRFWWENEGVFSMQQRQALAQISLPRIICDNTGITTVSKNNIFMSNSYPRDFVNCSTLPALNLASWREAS

B1: PBP2a-Apt1T1 (ssDNA)
DNA: ATGCCATCCTACCAACCCGGTGTTCGTGTGGGTGTAGAGGGGGCGAAGGATGGC
binding result [1]: no binding | binding result [2]: no binding | Kd [3]: 58 ± 11 nM

Reference: paper PMC12338438
